Paper PMC4735526 (Nature Communications, 2016)
Residue numbers refer to the chain shown, from its start.

Key:
[1] = molecular target: Sam68 QUA1-KH domain (human); assay: SAXS; 25 °C, 1-20 mg/ml protein in the NMR buffers, in the absence and presence of AAAUAA RNA (10 mg/ml protein, protein/RNA 1:1); molecular weights from Porod volumes
[2] = molecular target: the molecule itself; assay: crystal structure; T-STAR constructs in complex with short RNAs (protein/RNA 1:2), sitting drop vapour diffusion at 4 °C; protein in 10 mM Tris pH 7.0, 50 mM NaCl
[3] = molecular target: the molecule itself; assay: SAXS; 25 °C, 1-20 mg/ml protein in the NMR buffers, in the absence and presence of AAAUAA RNA (10 mg/ml protein, protein/RNA 1:1); molecular weights from Porod volumes
T-STAR KH = molecular target: T1, T-STAR KH (UniProt O75525 50-160); assay: X-ray crystallography; FP: 10 mM Tris pH 7, 100 mM NaCl, 0.1% beta-mercaptoethanol, 0.2 uM fluorescein-RNA, protein 0-200 uM, temperature not stated; NMR 303 K: Sam68 in 10 mM Tris pH
T1 sequence: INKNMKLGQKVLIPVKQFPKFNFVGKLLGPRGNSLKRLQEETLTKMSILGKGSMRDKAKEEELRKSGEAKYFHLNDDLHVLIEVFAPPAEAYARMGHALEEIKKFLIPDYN

T-STAR QUA1-KH [4] = molecular target: T2, T-STAR QUA1-KH (UniProt O75525 1-160); assay: as above
T2 sequence: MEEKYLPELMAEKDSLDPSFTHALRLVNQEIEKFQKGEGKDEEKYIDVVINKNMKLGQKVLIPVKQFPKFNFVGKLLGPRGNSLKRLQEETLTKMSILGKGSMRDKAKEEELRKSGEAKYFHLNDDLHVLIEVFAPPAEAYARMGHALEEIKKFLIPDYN

T-STAR STAR [5] = molecular target: T3, T-STAR STAR (UniProt O75525 1-183); assay: as above
T3 sequence: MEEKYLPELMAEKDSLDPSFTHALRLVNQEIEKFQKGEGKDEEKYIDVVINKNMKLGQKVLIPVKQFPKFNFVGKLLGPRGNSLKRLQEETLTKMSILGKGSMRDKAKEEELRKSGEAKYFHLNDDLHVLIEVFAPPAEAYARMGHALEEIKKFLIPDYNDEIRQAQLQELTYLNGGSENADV

Sam68 STAR [6] = molecular target: T4, Sam68 STAR (UniProt Q07666 97-283); assay: NMR chemical shift perturbation; FP: 10 mM Tris pH 7, 100 mM NaCl, 0.1% beta-mercaptoethanol, 0.2 uM fluorescein-RNA, protein 0-200 uM, temperature not stated; NMR 303 K: Sam68 in 10 mM Tris pH
T-STAR KH-QUA2 = molecular target: T5, T-STAR KH-QUA2 (UniProt O75525 50-183); assay: X-ray crystallography; FP: 10 mM Tris pH 7, 100 mM NaCl, 0.1% beta-mercaptoethanol, 0.2 uM fluorescein-RNA, protein 0-200 uM, temperature not stated; NMR 303 K: Sam68 in 10 mM Tris pH
T5 sequence: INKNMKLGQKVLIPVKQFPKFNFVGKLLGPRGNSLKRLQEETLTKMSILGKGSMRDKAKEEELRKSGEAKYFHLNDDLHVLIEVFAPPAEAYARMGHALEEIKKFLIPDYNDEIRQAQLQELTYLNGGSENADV

T-STAR STAR [7] = molecular target: T3, T-STAR STAR; assay: fluorescence polarization; 10 mM Tris pH 7, 100 mM NaCl, 0.1% beta-mercaptoethanol; 0.2 uM fluorescein-labelled RNA; protein 0-200 uM; temperature not stated
Sam68 QUA1-KH = Sam68 QUA1-KH (UniProt Q07666 97-260); assay: as above
T-STAR QUA1-KH [8] = molecular target: T2, T-STAR QUA1-KH; assay: as above
Sam68 STAR [9] = molecular target: T4, Sam68 STAR; assay: as above
Sam68 QUA1-KH Y241E = Sam68 QUA1-KH Y241E (UniProt Q07666 97-260, Y241E); assay: as above
T-STAR QUA1-KH Y141E = molecular target: T6, T-STAR QUA1-KH Y141E (UniProt O75525 1-160, Y141E); assay: as above
T6 sequence: T2 sequence with Y141E

T-STAR STAR Y141E = molecular target: T7, T-STAR STAR Y141E (UniProt O75525 1-183, Y141E); assay: as above
T7 sequence: T3 sequence with Y141E

“Sam68 QUA1-KH domain (domain or fragment)” gave a stoichiometry N [1] of 2.

B1: T-STAR KH domain (amino acids 50-160) (domain or fragment, human, UniProt O75525 50-160, looked up)
chain: T1 sequence
notes: T-STAR/SLM2, human, KH domain, residues 50-160; The free KH structure (5EL3) was phased from a SeMet-labelled KH domain; the complex with AAAUAA is 5ELS; source: E. coli Rosetta BL21 DE3, purified (Ni-NTA, TEV cleavage, size-exclusion chromatography); not shown: His tag (inferred from the Ni-NTA purification)
B1: binds [2].

B2: T-STAR KH-QUA2 domain (amino acids 50-183) (domain or fragment, human, UniProt O75525 50-183, looked up)
chain: T5 sequence
notes: T-STAR/SLM2, human, KH and QUA2 domains, residues 50-183; Crystallised with AAUAAU RNA; QUA2 not seen in the electron density; source: E. coli Rosetta BL21 DE3, purified (Ni-NTA, TEV cleavage, size-exclusion chromatography); not shown: His tag (inferred from the Ni-NTA purification)
B2: binds [2].

B3: T-STAR STAR domain (amino acids 1-183) (domain or fragment, human, UniProt O75525 1-183, looked up)
chain: T3 sequence
notes: Crystallised with AUUAAA RNA; QUA2 region not seen in the electron density; also called SLM2; source: E. coli Rosetta BL21 DE3, purified (Ni-NTA, TEV cleavage, size-exclusion chromatography); not shown: His tag (inferred from the Ni-NTA purification)
With B3 the “stoichiometry N” value [3] was 2.

B4: T-STAR QUA1-KH domain (domain or fragment, human)
chain: T2 sequence
notes: T-STAR/SLM2, human, QUA1 and KH domains with the linker between them; by the limits of the STAR (1-183) and KH (50-160) constructs they may be 1-160 (surmised); source: E. coli Rosetta BL21 DE3, purified (Ni-NTA, TEV cleavage, size-exclusion chromatography); not shown: His tag (inferred from the Ni-NTA purification)
With B4 the “stoichiometry N” value [3] was 2.

B5: Sam68 STAR domain (amino acids 97-283) (domain or fragment, human, UniProt Q07666 97-283, looked up)
chain: MEPENKYLPELMAEKDSLDPSFTHAMQLLTAEIEKIQKGDSKKDDEENYLDLFSHKNMKLKERVLIPVKQYPKFNFVGKILGPQGNTIKRLQEETGAKISVLGKGSMRDKAKEEELRKGGDPKYAHLNMDLHVFIEVFGPPCEAYALMAHAMEEVKKFLVPDMMDDICQEQFLELSYLNGVPEPSRG
notes: Sam68 (Src-associated protein in mitosis of 68 kDa), human, STAR domain (QUA1, KH, QUA2), residues 97-283; also called Src-associated protein in mitosis of 68 kDa; source: E. coli Rosetta BL21 DE3, purified (Ni-NTA, TEV cleavage, size-exclusion chromatography); not shown: His tag (inferred from the Ni-NTA purification)
B5 was tested, and the “stoichiometry N” value [3] was 2.

AAAUAA (ssRNA): binds (T-STAR KH).

UAAU (ssRNA): binds (T-STAR QUA1-KH [4]).

AUUAAA (ssRNA): binds (T-STAR STAR [5]); binds (Sam68 STAR [6]).

AAUAAU (ssRNA): binds (T-STAR KH-QUA2).

For CUGGGUGACACACUAGCUAUAGCAUUAAAAGACCGAGCAAGU (ssRNA) [G8.5], the Kd (T-STAR STAR [7]) was 11.7 µM, the Kd (Sam68 QUA1-KH) was 10.3 µM and the Kd (T-STAR QUA1-KH [8]) was 8.1 µM. For the same molecule, the Kd (Sam68 STAR [9]) was 36.1 µM.

With UCCGGAUUGGCCUAAAUAGAUGCGCGAUAAUAAUAGAGUA (ssRNA) [G7.1] the Kd (T-STAR STAR [7]) was 5.4 µM, the Kd (Sam68 QUA1-KH) was 4.3 µM and the Kd (T-STAR QUA1-KH [8]) was 4.5 µM. For the same molecule, the Kd (Sam68 STAR [9]) was 8.2 µM.

B6: SRE-4 (ssRNA)
RNA: UUUGGGGGUUCAAUAAAAAUUUUCACUAUCCUAUUAACAGUUCCGCCGCUCC
Molecule B6 has a Kd (T-STAR STAR [7]) of 8.5 µM, a Kd (Sam68 QUA1-KH) of 19.1 µM and a Kd (T-STAR QUA1-KH [8]) of 9.4 µM. The Kd (Sam68 STAR [9]) was 65.7 µM.

Molecule CCCAAUUAACUAACUAACUAACUUUAAAA (ssRNA) [Nrxn2] has a Kd (T-STAR STAR [7]) of 1.1 µM, a Kd (Sam68 QUA1-KH) of 2.2 µM and a Kd (T-STAR QUA1-KH [8]) of 1.7 µM. It also gave a Kd (Sam68 STAR [9]) of 3.7 µM.

UAAACCC (ssRNA) showed a Kd (T-STAR STAR [7]) of 7 µM, a Kd (Sam68 QUA1-KH) of 50 µM and a Kd (T-STAR QUA1-KH [8]) of 7.9 µM. It also gave a Kd (Sam68 QUA1-KH Y241E) of 27.1 µM, a Kd (T-STAR QUA1-KH Y141E) of 10.9 µM and a Kd (T-STAR STAR Y141E) of 6.8 µM.

In the case of UAAACCCCCUAAA (ssRNA) [UAAA-C5-UAAA], the Kd (T-STAR STAR [7]) is reported as 5.9 µM, the Kd (Sam68 QUA1-KH) is reported as 42.7 µM and the Kd (T-STAR QUA1-KH [8]) is reported as 5.5 µM. It also gave a Kd (Sam68 QUA1-KH Y241E) of 4.6 µM, a Kd (T-STAR QUA1-KH Y141E) of 5.3 µM and a Kd (T-STAR STAR Y141E) of 5.1 µM.

UAAACCCCCCCCCCUAAA (ssRNA) [UAAA-C10-UAAA] gave a Kd (T-STAR STAR [7]) of 7 µM, a Kd (Sam68 QUA1-KH) of 37.3 µM and a Kd (T-STAR QUA1-KH [8]) of 8.6 µM. The Kd (Sam68 QUA1-KH Y241E) was 3.9 µM, the Kd (T-STAR QUA1-KH Y141E) was 4.4 µM and the Kd (T-STAR STAR Y141E) was 4.9 µM.

In the case of UAAACCCCCCCCCCCCCCCUAAA (ssRNA) [UAAA-C15-UAAA], the Kd (T-STAR STAR [7]) is reported as 6.7 µM, the Kd (Sam68 QUA1-KH) is reported as 26.3 µM and the Kd (T-STAR QUA1-KH [8]) is reported as 6.8 µM. The Kd (Sam68 QUA1-KH Y241E) was 4 µM, the Kd (T-STAR QUA1-KH Y141E) was 4.7 µM and the Kd (T-STAR STAR Y141E) was 4.7 µM.

AUAAA (ssRNA) showed a Kd (Sam68 QUA1-KH) of 55 µM and a Kd (T-STAR QUA1-KH [8]) of 37 µM.

UUAAA (ssRNA) gave a Kd (Sam68 QUA1-KH) of 50 µM and a Kd (T-STAR QUA1-KH [8]) of 16 µM.

CUAAA (ssRNA) showed a Kd (Sam68 QUA1-KH) of 34 µM and a Kd (T-STAR QUA1-KH [8]) of 18 µM.

Work on AAAAA (ssRNA) yielded a Kd (Sam68 QUA1-KH) of 13 µM and a Kd (T-STAR QUA1-KH [8]) of 6 µM.

ACAAA (ssRNA) was tested, and the Kd (T-STAR QUA1-KH [8]) was 55 µM.

Work on AUAAU (ssRNA) yielded a Kd (Sam68 QUA1-KH) of 49 µM and a Kd (T-STAR QUA1-KH [8]) of 45 µM.

AUAAC (ssRNA) gave a Kd (T-STAR QUA1-KH [8]) of 47 µM.
